Test results reported in publication PMC11322666.

Target: UPF3B (UniProt Q9BZI7)
Assay: co-IP of IRE1α S724 mutants
Conditions: reference: wild type; sites S724

fold change: stronger
Substance: IRE1α (inositol-requiring enzyme-1α) (from UniProt O75460) S724A
